The source of these data is US20230381329A1, “Zwitterion Polymer-Drug Conjugates” (University of Utah Research Foundation, priority 2022, published 2023).

For data set [1], the target named is T1, recombinant human (rHu) insulin (Homo sapiens, UniProt P01308).
T1 construct: Insulin is a 51-residue protein
In words: Insulin aggregation assay (transmittance at 540 nm, continuous agitation at 37° C.). Type of data set: physicochemical.
Method: Insulin or calcitonin solutions were prepared in PBS at pH 7.4 at a final concentration of 1 mg/mL, and with and without the addition of 1.5 molar equivs of CB [7]-PMet for rHu insulin and 5 molar equivs for hCT. […] The plate was shaken continuously at 37° C. and absorbance readings at 540 nm were collected every 6 min the duration of the experiment as reported. Absorbance values were subsequently converted to transmittance. […]

The target in data set [2] is N-terminal phenylalanine residue on insulin (Homo sapiens, UniProt P01308). As to conditions: CB[7] macrocycle binding N-terminal phenylalanine of insulin; cited from earlier work.
N-terminal phenylalanine residue on insulin, sequence (P01308 25-54 limits assumed): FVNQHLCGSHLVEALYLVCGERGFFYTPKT
N-terminal phenylalanine residue on insulin, sequence (P01308 90-110 partner limits assumed): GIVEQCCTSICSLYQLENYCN
For data set [3] the following is noted: mice, cited from earlier work.
Data set [4] addresses T1, recombinant human (rHu) insulin. As to conditions: CB[7] alone, already shown; cited from earlier work.
The test system of data set [5] is Chinese hamster ovary cells. Conditions: cited from earlier work.
In data set [6] the target is T2, Human calcitonin (hCT) (Homo sapiens, UniProt P01258).
T2 construct: made in house; host or cells: chemical peptide synthesis (on resin)
T2 sequence (P01258 85-116): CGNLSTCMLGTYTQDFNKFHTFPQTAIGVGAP
In words: Calcitonin aggregation assay (transmittance at 540 nm, 37° C.). Type of data set: physicochemical. As to conditions: for time stabilized against aggregation: with 5 molar equivs CB[7]-PMet^CM80, with agitation, 37° C.; for time stabilized against aggregation / aggregation behavior alone: FIG. 5C; for aggregation behavior alone: without CB[7]-PMet^CM80, PBS pH 7.4, 37° C.; for stabilization against aggregation: with CB[7]-PMet^CM80, FIG. 5C. The protocol: Aggregation assay methods. Insulin aggregation assay. Insulin aggregation was assessed (Sluzky, V.; et al. Proc. Natl. Acad. Sci. U.S.A 1991, 88 (21), 9377-9381; and Webber, M. J.; et al. Proc. Natl. Acad. Sci. U.S.A 2016, 113 (50), 14189-14194). Insulin or calcitonin samples at pH 7.4 PBS and a final concentration of 1 mg/mL were prepared with and without the addition of 1.5 molar equivs of CB [7]-PMet. Samples were plated in a clear 96-well plate (Thermo Scientific Nunc) at a volume of 150 μL per well (n=5 wells/group) and sealed with an optically clear and thermally stable seal. The plate was immediately placed into a Tecan Infinite M200 plate reader and shaken continuously at 37° C. Absorbance readings at 540 nm were collected every 6 min the duration of the experiment as reported, and absorbance values were subsequently converted to transmittance.
Calcitonin aggregation assay. hCT and analogs were dissolved in PBS buffer, pH 7.4 and centrifuged at 3000 rpm for 3 min. The supernatant concentration was determined by nanodrop (6=1615 M^−1cm^−1 at 280 nm). hCT and analogs were prepared at a final concentration of 0.5 mg/mL with and without 5 eq of PMet^CM80-CB[7]. Samples were plated at 150 μL per well in a clear 96-well plate (Fisher Scientific Nunc) and sealed with optically clear and thermally stable sealing tape (VWR). The plate was immediately placed into the plate reader at 37° C. Absorbance readings at 540 nm were collected every 6 min with 60 s shaking between reads for […]. Absorbance values were subsequently converted to transmittance.
Aggregation assays. Peptide therapeutics were prepared (Meudom, R.; et al. Curr. Res. Chem. Biol. 2022, 2, 100013) and aggregation was assessed (Sluzky, V.; et al. Proc. Natl. Acad. Sci. U.S.A 1991, 88 (21), 9377-938; and Webber, M. J.; et al. Proc. Natl. Acad. Sci. U.S.A 2016, 113 (50), 14189-14194). Insulin or calcitonin solutions were prepared in PBS at pH 7.4 at a final concentration of 1 mg/mL, and with and without the addition of 1.5 molar equivs of CB [7]-PMet for rHu insulin and 5 molar equivs for hCT. Samples were plated in a clear 96-well plate (Thermo Scientific Nunc) at a volume of 150 μL per well (n=wells/group) and sealed with an optically clear and thermally stable seal. The plate was shaken continuously at 37° C. and absorbance readings at 540 nm were collected every 6 min the duration of the experiment as reported. Absorbance values were subsequently converted to transmittance.
Next, the stabilizing effects of CB[7]-PMet^CM80 on other aggregation-prone proteins was assessed. Human calcitonin (hCT, FIG. 5A) was selected as a model protein therapeutic. Since hCT lacks a terminal Phe for host-guest complexation, the N-terminal amine was selectively modified on-resin with a benzylic amine group using reductive amination chemistry (FIG. 5B). To optimize binding, two spacer lengths between the terminal amine and the benzyl ring were examined comprising either one or two methylene units (hCT A1 and A2, respectively). Aggregation behavior over 40 h was examined using the methods described herein, and with or without CB[7]-PMet^CM80. […] However, addition of CB[7]-PMet^CM80 stabilized hCT A2 for at least 40 h with agitation, while hCT A1 was stabilized for ca. 34 h.

Where two headings read alike, the source gives them in different places.

T1 sequence (P01308 25-54 limits assumed): as the sequence (P01308 25-54 limits assumed) above

Regarding “Poly-S-Carboxymethyl-L-Methionine Sulfonium Chloride Alkyne [PMetCM-Alk]”, in data set [1] (1 mg/mL insulin, PBS pH 7.4, 1.5 molar equivs additive, 37° C., 100 h, FIG. 3B), the “inhibition of rHu insulin aggregation under continuous agitation” value was “no inhibition”.

One may read the IC50 as the concentration needed to halve the response being measured. Turning to cucurbit[7]uril [CB[7]], the Ka in data set [2] was 1.5e+06 M⁻¹. The tolerated dose entry in data set [3] (intravenous) was “up to 250 mg kg^−1”; in data set [3] (oral), at most 600 mg/kg. The “effect on rHu insulin stability” value in data set [4] is recorded as “no effect”. For the same substance, in data set [5], the IC50 was 530 ± 20 µM.

As for “hCT A1: benzyl-functionalized human calcitonin with one methylene spacer between the terminal amine and the benzyl ring”, in data set [6], the “time stabilized against aggregation” value was “ca. 34 h” and the aggregation behavior alone result is given as “rapid aggregation”.

Turning to “hCT A2: benzyl-functionalized human calcitonin with two methylene spacers between the terminal amine and the benzyl ring”, in data set [6], the “time stabilized against aggregation” value is “at least 40 h”, the stabilization against aggregation entry was “resistance to aggregation” and the aggregation behavior alone entry is recorded as “rapid aggregation”.

As to “hCT: Human calcitonin, SEQ ID NO: 3, H2N-CGNLSTCMLGTYTQDFNKFHTFPQTAIGVGAP”, in data set [6], the stabilization against aggregation result was “not stabilized” and the aggregation behavior alone entry is reported as “rapid aggregation”.

Consider “rHu insulin: recombinant human insulin, SEQ ID NO: 1 and SEQ ID NO: 2 chains”, for which, in data set [1] (no additive, continuous agitation at 37° C., within the first few hours), the “aggregation of rHu insulin alone” value is reported as “rapid aggregation”.
